Common to all, as to conditions: both partners purified
Assay [1] deals with T1, GABAA receptor-associated protein (GABARAP) (mouse, UniProt Q9DCD6 1-117).
T1 construct: GABARAP, mouse, UniProt Q9DCD6; also called GABARAP WT; source: E. coli BL21 (DE3), purified (nickel-NTA, size exclusion)
In words: ITC; VP-ITC at 25 °C; 50 mM Tris pH 7.8, 100 mM NaCl, 1 mM EDTA, 1 mM DTT; γ2 subunit protein or peptide (100-200 μM) injected into GABARAP, GABARAPL1 or AP2 (10-20 μM) in the cell; one-site binding model. A general note: In ITC the heat of successive injections is recorded.

Assay [2] addresses T2, GABAAR-associated protein (GABARAP) (mouse, UniProt Q9DCD6 1-117).
T2 construct: GABARAP, mouse, UniProt Q9DCD6; the thioredoxin-His6 tag was removed 'when needed'; also called GABARAP WT; source: E. coli BL21 (DE3), purified (nickel-NTA, size exclusion)
As to the kind of experiment: ITC; giant ankyrin peptides and GABARAP, compared against γ2-GIM.

Assay [3] addresses T1, GABAA receptor-associated protein …. In words: ITC; VP-ITC at 25 °C; 50 mM Tris pH 7.8, 100 mM NaCl, 1 mM EDTA, 1 mM DTT; γ2 subunit protein or peptide (100-200 μM) injected into GABARAP, GABARAPL1 or AP2 (10-20 μM) in the cell; one-site binding model. The source holds these as a separate data set.
In assay [4] the target is T3, clathrin adaptor protein AP2 (AP2 μ1 subunit) (rat, UniProt P84092 158-435).
T3 construct: AP2 μ1 subunit as printed, rat, UniProt P84092; the limits rest on the primer list; also called AP2 WT; source: E. coli BL21 (DE3), purified (nickel-NTA, size exclusion)
T3 sequence (looked up): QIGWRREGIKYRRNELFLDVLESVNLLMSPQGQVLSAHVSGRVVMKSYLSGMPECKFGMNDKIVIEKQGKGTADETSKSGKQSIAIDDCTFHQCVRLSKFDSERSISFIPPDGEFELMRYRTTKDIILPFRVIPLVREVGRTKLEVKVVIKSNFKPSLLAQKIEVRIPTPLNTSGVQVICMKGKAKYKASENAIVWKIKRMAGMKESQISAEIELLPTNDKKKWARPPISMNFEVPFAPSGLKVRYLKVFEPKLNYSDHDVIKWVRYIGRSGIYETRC
Described as above.

The target in assay [5] is T2, GABAAR-associated protein (GABARAP). As to the kind of experiment: ITC; VP-ITC, 25 °C; 50 mM Tris pH 7.8, 100 mM NaCl, 1 mM EDTA, 1 mM DTT; γ2 subunit protein or peptide (100–200 μM) injected into GABARAP, GABARAPL1 or AP2 (10–20 μM) in the cell; one-site binding model.
The target of assay [6] is T4, clathrin adaptor protein AP2 (AP2 μ1 subunit as printed) (rat, UniProt P84092 1-435).
T4 construct: AP2 μ subunit (printed 'AP2 μ1 subunit'), rat, UniProt P84092; the full-length gene was amplified and shorter fragments were generated; Only the μ subunit is named as cloned; the text calls the protein 'AP2'; source: E. coli BL21 (DE3), purified (nickel-NTA, size exclusion)
T4 sequence (looked up): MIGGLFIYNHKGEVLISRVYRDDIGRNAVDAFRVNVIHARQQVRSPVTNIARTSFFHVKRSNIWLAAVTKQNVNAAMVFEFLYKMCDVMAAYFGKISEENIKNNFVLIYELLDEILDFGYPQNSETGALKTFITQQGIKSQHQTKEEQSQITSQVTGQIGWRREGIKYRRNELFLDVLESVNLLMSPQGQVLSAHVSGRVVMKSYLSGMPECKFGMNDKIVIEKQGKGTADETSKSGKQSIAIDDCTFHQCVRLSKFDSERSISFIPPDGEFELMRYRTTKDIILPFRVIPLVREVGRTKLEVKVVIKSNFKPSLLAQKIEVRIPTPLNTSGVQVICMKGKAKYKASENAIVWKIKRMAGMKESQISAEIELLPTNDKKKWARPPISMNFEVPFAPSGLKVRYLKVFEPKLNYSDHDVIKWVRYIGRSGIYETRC
Described as above.

Assay [7] deals with T5, GABARAPL1 (mouse, UniProt Q8R3R8 1-117).
T5 construct: GABARAPL1, mouse, UniProt Q8R3R8; source: E. coli BL21 (DE3), purified (nickel-NTA, size exclusion)
The assay is described as above.

Another assay addresses T6, GABARAP K66E (mouse, UniProt Q9DCD6 1-117, K66E).
T6 construct: GABARAP, mouse, UniProt Q9DCD6, K66E; source: E. coli BL21 (DE3), purified (nickel-NTA, size exclusion)
The description is as above.

The target of the next assay is T7, GABARAP E17A (mouse, UniProt Q9DCD6 1-117, E17A).
T7 construct: GABARAP, mouse, UniProt Q9DCD6, E17A; source: E. coli BL21 (DE3), purified (nickel-NTA, size exclusion)
Described as above.

Assay [8] deals with T8, GABARAPL1 (mouse, UniProt Q8R3R8 1-117).
T8 construct: GABARAPL1, mouse, UniProt Q8R3R8; also called GABARAPL1 WT; source: E. coli BL21 (DE3), purified (nickel-NTA, size exclusion)
As to the kind of experiment: ITC; VP-ITC at 25 °C; 50 mM Tris pH 7.8, 100 mM NaCl, 1 mM EDTA, 1 mM DTT; γ2 subunit protein or peptide (100-200 μM) injected into GABARAP, GABARAPL1 or AP2 (10-20 μM) in the cell; one-site binding model.

T1 sequence (Q9DCD6 whole entry): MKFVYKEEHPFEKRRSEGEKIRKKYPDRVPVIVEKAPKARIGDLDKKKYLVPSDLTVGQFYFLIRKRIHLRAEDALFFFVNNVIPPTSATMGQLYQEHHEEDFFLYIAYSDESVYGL
T2 sequence (Q9DCD6 whole entry): as above
T6 sequence (Q9DCD6 whole entry K66E): as the sequence (Q9DCD6 whole entry) above, with K66E counted along it
T7 sequence (Q9DCD6 whole entry E17A): as the sequence (Q9DCD6 whole entry) above, with E17A counted along it

B1: GABAA receptor γ2 subunit 375-424 (domain or fragment, mouse, UniProt P22723-2 375-424, looked up)
chain: PAPTIDIRPRSATIQMNNATHLQERDEEYGYECLDGKDCASFFCCFEDCR
notes: source: E. coli BL21 (DE3), purified (nickel-NTA, size exclusion)
A word on the stoichiometry N: it is a count of units in the complex or per binding partner. B1: the “stoichiometry N” value in [1] amounted to 0.92.

B2: AnkG-ER peptide (peptide)
peptide: PEDDWTRFSSEEIREARQAAASHAPS
Consider B2, for which the “fold stronger affinity for GABARAP than γ2-GIM” value in [2] was approximately 1000 fold.

B3: GABAA receptor γ2 subunit 398-424 (domain or fragment, mouse)
chain: ERDEEYGYECLDGKDCASFFCCFEDCR
notes: as for B1
As usually defined, the Kd is the constant that tells how readily two partners part at equilibrium. B3: in [1], binding was characterised by a dissociation constant (Kd) of 5 µM and the “stoichiometry N” value is 0.92.

B4: GABAA receptor γ2-GIM Y403E (peptide, UniProt P22723-2 398-415, looked up)
chain: ERDEEEGYECLDGKDCAS
notes: as for B1
As for B4, the Kd in assay [3] turned out to be 1 ± 0.1 µM; in assay [4], 2.46 ± 0.22 µM.

B5: γ2-GIM Y403E variant (phosphomimic mutation) (peptide, UniProt P22723-2 398-415, looked up)
chain: ERDEEEGYECLDGKDCAS
notes: as for B1
As to B5, in assay [5], the “fold increase of affinity against γ2-GIM WT” value was approximately 5 fold. Besides, the “fold decrease of affinity against γ2-GIM WT” value in [6] was approximately 10 fold.

B6: GABAA receptor γ2-GIM E402T (peptide, UniProt P22723-2 398-415, looked up)
chain: ERDETYGYECLDGKDCAS
notes: as for B1
B6 showed a Kd in assay [4] of 0.56 ± 0.02 µM.

B7: GABAA receptor γ2-GIM L408Q (peptide, UniProt P22723-2 398-415, looked up)
chain: ERDEEYGYECQDGKDCAS
notes: as for B1
In assay [4], B7 gave a Kd of more than 50 µM.

B8: GABAA receptor γ2 subunit 375-442 (full length TM3-TM4 ICD) (domain or fragment, mouse, UniProt P22723-2 375-442, looked up)
chain: PAPTIDIRPRSATIQMNNATHLQERDEEYGYECLDGKDCASFFCCFEDCRTGAWRHGRIHIRIAKMDS
notes: GABAA receptor γ2 subunit, mouse, UniProt P22723-2, residues 375-442 (TM3-TM4 intracellular domain); also called GABAA receptor γ2 375-442; source: E. coli BL21 (DE3), purified (nickel-NTA, size exclusion)
In the case of B8, the “stoichiometry N” value in assay [1] was found to be 0.53.

B9: full length TM3–TM4 ICD (residues 375–442) of the GABAA receptor γ2 subunit (domain or fragment, mouse, UniProt P22723-2 375-442, looked up)
chain: PAPTIDIRPRSATIQMNNATHLQERDEEYGYECLDGKDCASFFCCFEDCRTGAWRHGRIHIRIAKMDS
notes: GABAA receptor γ2 subunit, mouse, UniProt P22723-2, residues 375-442; also called TM3–TM4 intracellular loop; source: E. coli BL21 (DE3), purified (nickel-NTA, size exclusion)
As for B9, in [5], the Kd was approximately 8 µM.

B10: GABAAR γ2 subunit GIM (GABARAP interacting motif, 398–415) (peptide, UniProt P22723-2 398-415, looked up)
chain: ERDEEYGYECLDGKDCAS
notes: also called γ2-GIM; source: E. coli BL21 (DE3), purified (nickel-NTA, size exclusion)
B10: in the assay with GABARAPL1 [7], the Kd was approximately 6.6 µM. In addition, the “fold weakening against GABARAP WT” value with GABARAP K66E was approximately 4 fold. The binding result with GABARAP E17A is on record as “binds”.

B11: γ2-GIM E402T variant (peptide, UniProt P22723-2 398-415, looked up)
chain: ERDETYGYECLDGKDCAS
notes: as for B1
B11: the Kd in assay [5] amounted to 8.4 µM.

B12: GABAA receptor γ2 subunit 404-442 (domain or fragment, mouse)
chain: GYECLDGKDCASFFCCFEDCRTGAWRHGRIHIRIAKMDS
notes: GABAA receptor γ2 subunit, mouse, UniProt P22723-2, residues 404-442; also called GABAA receptor γ2 404-442; source: E. coli BL21 (DE3), purified (nickel-NTA, size exclusion)
For B12, in assay [1], the Kd was determined as 30 µM and the “stoichiometry N” value was found to be 0.55.

B13: GABAA receptor γ2-GIM E406R (peptide, UniProt P22723-2 398-415, looked up)
chain: ERDEEYGYRCLDGKDCAS
notes: as for B1
As to B13, the Kd in [4] was found to be 0.69 ± 0.06 µM.

B14: GABAA receptor γ2 subunit GIM (GABARAP interacting motif, 398-415) (peptide)
chain: ERDEEYGYECLDGKDCAS
notes: as for B10
B14: in the assay with GABARAPL1 [8], the dissociation constant Kd is 5.7 µM and the “stoichiometry N” value was 1.23.

The values are drawn from publication PMC7803741, “Structural basis of GABARAP-mediated GABAA receptor trafficking and functions on GABAergic synaptic transmission” (Nature Communications, 2021).
